Measurements reported in publication PMC6192195, “Hampered motility promotes the evolution of wrinkly phenotype in Bacillus subtilis” (BMC Evolutionary Biology, 2018).
Where a chain is given by its changes, count along the chain named. In names and notes the source's numbering stands.

T1: SinR (Bacillus subtilis 168 (sequence …, UniProt P06533 1-111))
T1 sequence: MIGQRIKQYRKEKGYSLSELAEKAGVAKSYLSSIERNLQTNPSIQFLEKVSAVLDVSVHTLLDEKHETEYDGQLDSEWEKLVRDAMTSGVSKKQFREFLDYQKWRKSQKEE

T2: SinR-L99S (Bacillus subtilis 168 (sequence …, UniProt P06533 1-111, L99S))
T2 sequence: T1 sequence with L99S

T3: SinR-L99S variant (Bacillus subtilis, UniProt P06533 1-111, L99S)
T3 sequence: T1 sequence with L99S

T4: SinR (wild type), master repressor of biofilm-related genes (Bacillus subtilis, UniProt P06533 1-111)
T4 chain: T1 sequence

B1: IR-DNA (SinR operator inverted repeat) (dsDNA)
DNA 1: TTTGTTCTCTAAAGAGAACTTA
DNA 2: TAAGTTCTCTTTAGAGAACAAA
B2: SinI^9-39 peptide (SinI protein from amino acid 9 to 39) (peptide, UniProt P23308 9-39, looked up)
peptide: FELDQEWVELMVEAKEANISPEEIRKYLLLN
notes: SinI, antagonist (anti-repressor) of SinR, Bacillus subtilis, amino acids 9-39; Synthesized with a free amine at the N-terminus and a free acid group at the C-terminus; also called SinI peptide; truncated version of SinI; source: synthetic peptide (peptides&elephants GmbH)
B3: SinR (wild type), master repressor of biofilm-related genes (natural protein, Bacillus subtilis)
chain: T1 sequence
notes: SinR of Bacillus subtilis; Tetramer by analytical SEC; also called SinR^WT; wildtype SinR; source: E. coli BL21(DE3), purified (Ni-NTA, SEC)
B4: SinR-L99S variant (natural protein, Bacillus subtilis)
chain: T1 sequence with L99S
notes: SinR of Bacillus subtilis with L99S, made by two-step PCR mutagenesis of the sinR construct in pET24d; L99S arose spontaneously in the wrinkly isolates (WTWS1, ΔhagWS2) during pellicle growth in the laboratory; the recombinant protein was made by site-directed mutagenesis; Tetramer by analytical SEC; source: E. coli BL21(DE3), purified (Ni-NTA, SEC)

Key:
SinI (Bacillus subtilis) = SinI (Bacillus subtilis) (UniProt P23308); details: cited from earlier work
SinR [1] = target: T1, SinR; experiment: ITC; binding site 2 of two-sites model; N2 = 0.143 +/- 0.0123; ITC: buffer C (20 mM HEPES/NaOH, 500 mM NaCl; pH not stated for buffer C, 8.0 for buffers A/B), 25 °C; 30 µM SinR in cell, 150 µM IR-DNA titrated in; details: protein: recombinant; tags: C-terminal His6; chain copies: 4; blunt
SinR [2] = target: T1, SinR; experiment: ITC; binding site 1 of two-sites model; N1 = 0.264 +/- 0.0114; ITC: buffer C (20 mM HEPES/NaOH, 500 mM NaCl; pH not stated for buffer C, 8.0 for buffers A/B), 25 °C; 30 µM SinR in cell, 150 µM IR-DNA titrated in; details: protein: recombinant; tags: C-terminal His6; chain copies: 4; blunt
SinR-L99S = target: T2, SinR-L99S; experiment: ITC; binding site 1 of two-sites model; comparable to wild type; ITC: buffer C (20 mM HEPES/NaOH, 500 mM NaCl; pH not stated for buffer C, 8.0 for buffers A/B), 25 °C; 30 µM SinR in cell, 150 µM IR-DNA titrated in; details: protein: recombinant; tags: C-terminal His6; chain copies: 4; blunt
SinR-L99S variant [3] = target: T3, SinR-L99S variant; experiment: ITC; first site (two-site model)
[4] = target: B3; experiment: ITC; 250 uM SinI 9-39 peptide titrated into 25 uM SinR or SinR-L99S in the cell, 25 °C, buffer C (20 mM HEPES/NaOH, 500 mM NaCl); apparent KD; one-site model for wild type, two-sites model for L99S; details: both partners purified
SinR-L99S variant [5] = target: B4; experiment: as above; details: both partners purified
SinR-L99S variant [6] = target: T3, SinR-L99S variant; experiment: ITC; second site (two-site model)
[7] = target: T4, SinR (wild type), master repressor of …; experiment: ITC
[8] = target: the molecule itself; experiment: SEC; analytical SEC, Superdex 200 Increase 10/300 GL; SinR or SinR-L99S alone (tetrameric state also seen with IR-DNA)

Chain of SinI (Bacillus subtilis) (P23308 whole entry): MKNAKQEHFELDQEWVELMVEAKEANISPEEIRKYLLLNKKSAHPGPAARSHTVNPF

With SinR (from UniProt P06533) as the molecule, how does the Kd (SinI (Bacillus subtilis)) read?
The Kd was under 10 nM.

With B1 as the molecule, how does the Kd (SinR [1]) read?
The Kd was about 6 nM.

What about the Kd (SinR [2]) of the same molecule?
The Kd was about 121 nM.

And the Kd (SinR-L99S)?
Its Kd is about 99 nM.

For B2, which Ka (SinR-L99S variant [3]) is on record?
Its Ka is 6.16e+06 M⁻¹.

What about the Kd [4] of the same molecule?
Its Kd is about 7 nM.

And the dH [4]?
Its dH is -3.75 ± 0.136 kcal/mol.

And the “stoichiometry N” value [4]?
Its value is 1.2 ± 0.02.

What about the “KD site 1” value (SinR-L99S variant [5]) of the same molecule?
Its value is about 162 nM.

And the “KD site 2” value (SinR-L99S variant [5])?
The value was about 571 nM.

And the “dH binding event 1” value (SinR-L99S variant [5])?
Its value is -3.93 ± 1.45 kcal/mol.

What about the “dH binding event 2” value (SinR-L99S variant [5]) of the same molecule?
Its value is -15.2 kcal/mol.

What about the “stoichiometry N” value (SinR-L99S variant [5]) of the same molecule?
The value was about 1.35.

And the Ka (SinR-L99S variant [6])?
The Ka was 1.75e+06 M⁻¹.

What about the Ka [7] of the same molecule?
The Ka was 1.41e+08 M⁻¹.

With B3 as the molecule, how does the “stoichiometry N” value [8] read?
The value was 4.

With B4 as the molecule, how does the “stoichiometry N” value [8] read?
Its value is 4.
